In patent CN108264558A (SHANGHAI NOVOPROTEIN BIOTECHNOLOGY CO LTD, dated 2018):

How the values were obtained:
Assay in all cases: ELISA, target coated at 1 μg/ml, TsM titrated from 10 μg/ml
[1] = target: T1, CD19-CD3-4-1BBL TsM_D
T1 construct: Two chains joined by disulfide bonds of the IgD hinge (dimer by non-reducing SDS-PAGE and mass spectrometry); also called 二聚体形式的抗CD19/抗CD3/4-1BBL三特异性分子; 二聚体形式的TiTE三特异分子

[2] = target: T2, CD19-CD3-B7RP-1 TsM_M
T2 construct: CHO-S expressed, N-glycosylated monomer; also called 单体形式的抗CD19/抗CD3/B7RP-1三特异性分子

[3] = target: T3, CD19-CD3-CD70 TsM_M
T3 construct: CHO-S expressed, N-glycosylated monomer; also called 单体形式的抗CD19/抗CD3/CD70三特异性分子

[4] = target: T4, CD19-CD3-OX40L TsM_M
T4 construct: CHO-S expressed, N-glycosylated monomer; also called 单体形式的抗CD19/抗CD3/OX40L三特异性分子

[5] = target: T5, CD19-CD3-OX40L TsM_D
T5 construct: Disulfide-linked, glycosylated dimer; also called 二聚体形式的抗CD19/抗CD3/OX40L三特异性分子

[6] = target: T6, CD19-CD3-GITRL TsM_M
T6 construct: CHO-S expressed, N-glycosylated monomer; also called 单体形式的抗CD19/抗CD3/GITRL三特异性分子

[7] = target: T7, CD19-CD3-CD70 TsM_D
T7 construct: Disulfide-linked, glycosylated dimer; also called 二聚体形式的抗CD19/抗CD3/CD70三特异性分子

[8] = target: T8, CD19-CD3-GITRL TsM_D
T8 construct: Disulfide-linked, glycosylated dimer; also called 二聚体形式的抗CD19/抗CD3/GITRL三特异性分子

[9] = target: T9, CD19-CD3-4-1BBL TsM_M
T9 construct: monomer confirmed by SDS-PAGE and mass spectrometry; also called 单体形式的抗CD19/抗CD3/4-1BBL三特异性分子; 单体形式的TiTE三特异分子

[10] = target: T10, CD19-CD3-B7RP-1 TsM_D
T10 construct: Disulfide-linked, glycosylated dimer; also called 二聚体形式的抗CD19/抗CD3/B7RP-1三特异性分子

Measured: binding result

B1: 人类CD19-hFc融合蛋白 (Fc fusion, human, UniProt P15391 20-291, looked up)
chain: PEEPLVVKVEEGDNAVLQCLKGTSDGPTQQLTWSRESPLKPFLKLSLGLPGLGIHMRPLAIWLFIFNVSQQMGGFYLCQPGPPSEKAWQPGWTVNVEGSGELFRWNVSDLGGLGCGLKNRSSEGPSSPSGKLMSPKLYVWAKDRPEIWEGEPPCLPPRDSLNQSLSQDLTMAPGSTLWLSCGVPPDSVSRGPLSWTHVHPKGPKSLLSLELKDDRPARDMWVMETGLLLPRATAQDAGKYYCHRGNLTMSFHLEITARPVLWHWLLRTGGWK
notes: Bought from 吴江近岸蛋白质科技有限公司; Coated at 1 μg/ml in ELISA; also called 重组抗原CD19-hFc; 抗原CD19-hFc; not shown: human Fc (hFc)
binds: all assays above

B2: 人类ICOS-hFc融合蛋白 (Fc fusion)
chain: EINGSANYEMFIFHNGGVQILCKYPDIVQQFKMQLLKGGQILCDLTKTKGSGNTVSIKSLKFCHSQLSNNSVSFFLYNLDHSHANYYFCNLSIFDPPPFKVTLTGGYLHIYESQLCCQLK
notes: Bought from 吴江近岸蛋白质科技有限公司; also called 重组蛋白ICOS-hFc; T细胞正共刺激分子ICOS-hFc; not shown: human Fc (hFc)
binds: [2] | [10]

B3: 人类GITR-hFc融合蛋白 (Fc fusion)
chain: QRPTGGPGCGPGRLLLGTGTDARCCRVHTTRCCRDYPGEECCSEWDCMCVQPEFHCGDPCCTTCRHHPCPPGQGVQSQGKFSFGFQCIDCASGTFSGGHEGHCKPWTDCTQFGFLTVFPGNKTHNAVCVPGSPPAE
notes: Bought from 吴江近岸蛋白质科技有限公司; also called 重组蛋白GITR-hFc; T细胞正共刺激分子GITR-hFc; not shown: human Fc (hFc)
binds: [6] | [8]
